Data published in PMC2671562.
pKd: −log10 of the molar value.

What was measured:
[1] = molecular target: ARNT PAS-B (Homo sapiens) (UniProt P27540); test: NMR; conditions: cited from earlier work
[2] = molecular target: Drosophila PERIOD fragment lacking helix αF, dPERΔαF[232–538] (Drosophila melanogaster) (UniProt P07663); test: AUC; sedimentation equilibrium, interference optics, 10 °C, 25 mM HEPES pH 7.7, 100 mM NaCl, 2 mM DTE; four starting concentrations from stocks of 0.8–2 mg/ml; dimer to monomers, K D = 1/K A

Sequence of HIF-2α PAS-B (Q99814 239-350): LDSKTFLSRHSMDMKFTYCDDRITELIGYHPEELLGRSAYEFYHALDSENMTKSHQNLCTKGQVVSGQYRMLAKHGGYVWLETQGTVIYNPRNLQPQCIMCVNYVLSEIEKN
Sequence of ARNT PAS-B (P27540 356-470): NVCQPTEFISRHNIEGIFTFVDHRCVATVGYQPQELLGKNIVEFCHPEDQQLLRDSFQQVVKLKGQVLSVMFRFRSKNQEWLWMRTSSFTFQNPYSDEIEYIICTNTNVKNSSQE

Substance	pKd [1]	pKd [2]
ARNT PAS-B (from UniProt P27540)	3.30	–
HIF-2α PAS-B (from UniProt Q99814)	4.52	–
Drosophila PERIOD fragment lacking helix αF, dPERΔαF[232–538] (from UniProt P07663 232-538) (domain or fragment)	–	3.59
